In article PMC6994475:

Assays:
Test in all cases: EMSA
Settings in all cases: EMSA: 10 nM 6-FAM oligo, 50 mM HEPES pH 7.5, 250 mM NaCl, 1 mM DTT, 2.5 mM EDTA, 10% glycerol, on ice 10 min, 8% native PAGE; sumo-rA3G after heavy RNase A/T1 …
[1] = test system: rA3G rM9 (Macaca mulatta)
[2] = test system: rA3G rM15 (Macaca mulatta)
[3] = test system: rA3G R24T (Macaca mulatta)
[4] = test system: rA3G rM13 (Macaca mulatta)
[5] = test system: rA3G E/Q (Macaca mulatta)
[6] = test system: rA3G rM14 (Macaca mulatta)
[7] = test system: rA3G WT (parental construct, R8 K128D) (Macaca mulatta)
[8] = test system: rA3G rM11 (Macaca mulatta)
[9] = test system: rA3G rM12 (Macaca mulatta)
[10] = test system: rA3G rM10 (Macaca mulatta)

| Substance | Kd [1] | Kd [2] | Kd [3] | Kd [4] | Kd [5] | Kd [6] | Kd [7] | Kd [8] | Kd [9] | Kd [10] |
| --- | --- | --- | --- | --- | --- | --- | --- | --- | --- | --- |
| 50 nt ssDNA | 74 nM | 71 nM | 51 nM | 155 nM | 10 nM | 102 nM | 24 nM | 89 nM | 188 nM | 53 nM |
| 50 nt ssRNA | 20 nM | 21 nM | 21 nM | 43 nM | 19 nM | 15 nM | 22 nM | 21 nM | 52 nM | 24 nM |
